In patent publication US9493781B2, “Synthetic brassica-derived chloroplast transit peptides” (DOW AGROSCIENCES LLC, priority 2012, dated 2016):

Columns and labels:
Arabidopsis [1] = assay: Heritability progeny test of T1 families (T2 plants) with glufosinate, Arabidopsis; assay type: in vivo, Arabidopsis thaliana; details: progeny test of 100 T2 plants, glufosinate 200 g ae/ha
Excerpt: Heritability. Confirmed transgenic T1 Arabidopsis events were self-pollinated to produce T2 seed. These seed were progeny tested by applying Ignite™ herbicide containing glufosinate (200 g ae/ha) to 100 random T2 siblings. […] The T1 families (T2 plants) segregated in the anticipated 3 Resistant: 1 Sensitive model for a dominantly inherited single locus with Mendelian inheritance as determined by Chi square analysis (P>0.05). […] Seed were collected from 5 to 15 T2 individuals (T3 seed). Twenty-five T3 siblings from each of 3-4 randomly-selected T2 families were progeny tested as previously described.

Arabidopsis [2] = assay: dgt-28, dgt-32, dgt-33, dgt-3, dgt-7 transformed Arabidopsis (T1, T2, T3) response to postemergence glyphosate, % visual injury; assay type: in vivo, Arabidopsis thaliana; details: for % Injury Ave / % Injury Range (%) / No. plants with 20-40% injury / No. plants with <20% injury / No. plants with >40% injury: 14 days after application
Excerpt: Transgenic T1 Arabidopsis plants containing the dgt-28 transgene were sprayed with differing rates of glyphosate. Elevated rates were applied in this study to determine the relative levels of resistance (105, 420, 1,680 or 3,360 g ae/ha). A typical 1× usage rate of glyphosate that will control non-transformed Arabidopsis is 420 g ae/ha. […] The T1 Arabidopsis plants that were used in this study were variable copy number for the dgt-28 transgene. The low copy dgt-28 T1 Arabidopsis plants were self-pollinated and used to produce T2 plants.
Results of Glyphosate Selection of Transformed dgt-28 Arabidopsis Plants. The Arabidopsis T1 transformants were first selected from the background of untransformed seed using a glufosinate selection scheme. Three flats or 30,000 seed were analyzed for each T1 construct. The T1 plants selected above were molecularly characterized and representative plants with variable copy number were subsequently transplanted to individual pots and sprayed with various rates of commercial glyphosate as previously described. The response of these plants is presented in terms of % visual injury 2 weeks after treatment (WAT). […] An arithmetic mean and standard deviation is presented for each construct used for Arabidopsis transformation. The range in individual response is also indicated in the last column for each rate and transformation. Wild-type, non-transformed Arabidopsis (c.v. Columbia) served as a glyphosate sensitive control.
T2Arabidopsis Data. The second generation plants (T2) of selected T1 Arabidopsis events which contained low copy numbers of the dgt-28 transgene were further characterized for glyphosate tolerance. Glyphosate was applied as described previously. The response of the plants is presented in terms of % visual injury 2 weeks after treatment (WAT). […] An arithmetic mean and standard deviation are presented for each construct used for Arabidopsis transformation. The range in individual response is also indicated in the last column for each rate and transformation. Wild-type, non-transformed Arabidopsis (cv. Columbia) served as a glyphosate sensitive control. In the T2 generation hemizygous and homozygous plants were available for testing for each event and therefore were included for each rate of glyphosate tested. Hemizygous plants contain two different alleles at a locus as compared to homozygous plants which contain the same two alleles at a locus. Variability of response to glyphosate is expected in the T2 generation as a result of the difference in gene dosage for hemizygous as compared to homozygous plants. The variability in response to glyphosate is reflected in the standard deviation and range of response.
T3 Arabidopsis Data. The third generation plants (T3) of selected T2 Arabidopsis events which contained low copy numbers of the dgt-28 transgene were further characterized for glyphosate tolerance. […] Glyphosate was applied as described previously. The response of the plants is presented in terms of % visual injury 2 weeks after treatment (WAT). […] An arithmetic mean and standard deviation are presented for each construct used for Arabidopsis transformation. The range in individual response is also indicated in the last column for each rate and transformation. Wild-type, non-transformed Arabidopsis (cv. Columbia) served as a glyphosate-sensitive control.

[3] = Table 8, T1 Arabidopsis, 105 g ae/ha glyphosate
[4] = Table 8, T1 Arabidopsis, 420 g ae/ha glyphosate
[5] = Table 8, T1 Arabidopsis, 1680 g ae/ha glyphosate
[6] = Table 8, T1 Arabidopsis, 3360 g ae/ha glyphosate
[7] = Table 10, T1 Arabidopsis, 1,680 g ae/ha glyphosate
[8] = Table 12, T2 Arabidopsis, 1 copy, 420 g ae/ha glyphosate
[9] = Table 12, T2 Arabidopsis, 1 copy, 840 g ae/ha glyphosate
[10] = Table 12, T2 Arabidopsis, 1 copy, 1680 g ae/ha glyphosate
[11] = Table 12, T2 Arabidopsis, 1 copy, 3360 g ae/ha glyphosate

B1: pDAB105530: TraP5 v2 - dgt-28 v5: binary construct TraP5 v2: dgt-28 v5 (SEQ ID NO:33) (nucleic acid)
DNA: ATGCAACTCCTGAATCAGAGGCAAGCCCTGCGTCTTGGTCGTTCATCTGCTTCAAAGAACCAGCAAGTTGCTCCACTGGCCTCTAGGCCTGCTTCTTCCTTGAGCGTCAGCGCATCCAGCGTCGCACCTGCACCTGCTTGCTCAGCTCCTGCTGGAGCTGGAAGGCGTGCTGTTGTCGTGAGAGCAGCAAGAGGGATGCCAGCCTTGTCTTTACCTGGATCAAAGAGTATCACAGCTAGGGCACTCTTTCTTGCTGCTGCTGCTGATGGGGTTACTACTTTGGTGAGGCCATTGAGAAGTGACGACACAGAAGGATTCGCTGAGGGGTTAGTTCGTTTAGGCTATCGTGTAGGGAGGACACCCGATACTTGGCAAGTCGATGGCAGACCACAAGGACCAGCAGTGGCTGAGGCTGACGTCTACTGTAGAGACGGAGCAACCACCGCTAGATTCTTGCCAACCTTAGCAGCTGCTGGTCACGGAACATACAGATTTGATGCTTCACCACAGATGAGGAGACGTCCTCTTTTGCCCTTAAGCAGAGCCTTGAGGGATTTGGGTGTCGATCTTAGACACGAAGAAGCTGAAGGTCATCACCCTCTGACTGTCCGTGCTGCTGGGGTTGAAGGAGGAGAGGTTACTTTGGATGCTGGTCAGTCAAGTCAGTATCTCACTGCCTTGTTGCTCCTTGGTCCCCTTACAAGACAAGGACTGAGGATAAGGGTTACTGATTTGGTGTCAGCACCATACGTGGAGATTACGCTTGCAATGATGAGGGCTTTCGGAGTTGAAGTGGCAAGGGAGGGAGATGTGTTCGTTGTTCCACCTGGTGGATATCGTGCAACTACGTATGCTATAGAACCCGACGCAAGTACTGCTTCTTACTTCTTCGCAGCTGCTGCTTTGACTCCTGGAGCTGAAGTGACTGTACCTGGGTTAGGCACGGGAGCACTTCAAGGAGATTTGGGATTTGTAGATGTCTTAAGGAGAATGGGAGCCGAGGTGTCCGTAGGAGCTGATGCAACCACTGTTAGAGGAACTGGTGAATTGCGTGGCCTTACAGCCAACATGAGAGACATAAGTGATACGATGCCGACCCTCGCTGCAATAGCACCCTTTGCTAGTGCTCCAGTTAGAATCGAGGATGTTGCCAACACTCGTGTCAAAGAATGTGACAGACTTGAGGCTTGTGCAGAGAACCTTAGGAGGTTGGGAGTAAGGGTTGCAACGGGTCCGGACTGGATTGAGATACACCCTGGTCCAGCTACTGGTGCTCAAGTCACAAGCTATGGTGATCACAGAATTGTGATGTCATTTGCAGTGACTGGACTTCGTGTGCCTGGGATCAGCTTCGACGACCCTGGCTGTGTTCGTAAGACTTTTCCTGGGTTTCACGAGGCTTTCGCAGAATTGAGGCGTGGCATTGGGAGCTGA
modifications: In-frame fusion of dgt-28 v5 and TraP5 v2
Arabidopsis [1]
  T1 Families Tested Segregating at 1 Locus (%): 100%
Arabidopsis [2]; T2 Arabidopsis, versus dgt-28 constructs with other TraP transit peptides
  Glyphosate tolerance: did not provide robust tolerance to glyphosate
Arabidopsis [2]; [3]
  % Injury Ave: 39.3%
  % Injury Range (%): 8-100%
  No. plants with 20-40% injury: 2
  No. plants with <20% injury: 2
  No. plants with >40% injury: 2
Arabidopsis [2]; [4]
  % Injury Ave: 33.0%
  % Injury Range (%): 8-85%
  No. plants with 20-40% injury: 4
  No. plants with <20% injury: 1
  No. plants with >40% injury: 1
Arabidopsis [2]; [5]
  % Injury Ave: 47.5%
  % Injury Range (%): 25-85%
  No. plants with 20-40% injury: 4
  No. plants with <20% injury: 0
  No. plants with >40% injury: 2
Arabidopsis [2]; [6]
  % Injury Ave: 76.7%
  % Injury Range (%): 50-85%
  No. plants with 20-40% injury: 0
  No. plants with <20% injury: 0
  No. plants with >40% injury: 6
Arabidopsis [2]; [7]
  % Injury Ave: 47.5%
  % Injury Range (%): 25-85%
  No. plants with 20-40% injury: 4
  No. plants with <20% injury: 0
  No. plants with >40% injury: 2
Arabidopsis [2]; [8]
  % Injury Ave: 75.0%
  % Injury Range (%): 50-90%
  No. plants with 20-40% injury: 0
  No. plants with <20% injury: 0
  No. plants with >40% injury: 4
Arabidopsis [2]; [9]
  % Injury Ave: 80.0%
  % Injury Range (%): 50-90%
  No. plants with 20-40% injury: 0
  No. plants with <20% injury: 0
  No. plants with >40% injury: 4
Arabidopsis [2]; [10]
  % Injury Ave: 75.0%
  % Injury Range (%): 60-85%
  No. plants with 20-40% injury: 0
  No. plants with <20% injury: 0
  No. plants with >40% injury: 4
Arabidopsis [2]; [11]
  % Injury Ave: 76.3%
  % Injury Range (%): 70-80%
  No. plants with 20-40% injury: 0
  No. plants with <20% injury: 0
  No. plants with >40% injury: 4
